B1: CPEB3 Ribozyme (parent)
chain: UAACAGGGGGCCACAGCAGAAGCGUUCACGUCGCAGCCCCUGUCAGAUUCUGGUGAAUCUGCGAAUUCUGCUGUAUAUCUC

Variants of B1 are the subject of the series. Description: self-cleavage, relative activity (ratio to wild type); higher = more cleavage; in vitro, sequencing. A digest of the protocol: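 Barcoded CPEB3 ribozyme mutants, produced by rounds of error-prone PCR, self-cleaved while being transcribed with T7 RNA polymerase for 5 hours at 37°C and during a subsequent 15 min DNase I step before EDTA was added. Sequencing of template-switched cDNA on Illumina gave cleaved and total reads, and DNA sequencing assigned barcodes to variants. Each variant's relative activity is its cleaved/total read fraction divided by the unmutated ribozyme's fraction, averaged across three batches. A variant needed a minimum of 5 reads.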
On to UAACAGGGGGCCACAGCAGAAGCGUUCACGUCGCAGCCCUUGUCAGAUUCUGGUGAAUCUGCGAAUUCUGCUGUAUACCUC, for which the self-cleavage came out at 0.56.
As to UAACAGGGGGCCACAGCAGAAGCGUUCACGUCGCAGCCCUUGUCAGAUUCUGGUGAAUCUGCGAAUUCUGCUGUAUAACUC, the self-cleavage is 0.75.
The result for UAACAGGGGGCCACAGCAGAAGCGUUCACGUCGCAGCCCCAGUCAGAUUCUGGUGAAUCUGCGAAUUCUUCUGUAUAUCUC reads 0.12.
The result for UAACAGGGGGCCACAGCAGAAGCGUUCACGUCGCAGCCCCAGCCAGAUUCUGGUGAAUCUGCGAAUUCUGCUGUAUAUCUC reads 0.27; that for UAACAGGGGGCCACAGCAGAAGCGUUCACGUCGCAGCCCCAGACAGAUUCUGGUGAAUCUGCGAAUUCUGCUGUAUAUCUC, 0.24; that for UAACAGGGGGCCACAGCAGAAGCGUUCACGUCGCAGCCCCAGGCAGAUUCUGGUGAAUCUGCGAAUUCUGCUGUAUAUCUC, 0.4.
The result for UAACAGGGGGCCACAGCAGAAGCGUUCACGUCGCAGCCCCAGUAAGAUUCUGGUGAAUCUGCGAAUUCUGCUGUAUAUCUC reads 0.15.
For the variant UAACAGGGGGCCACAGCAGAAGCGUUCACGUCGCAGCCCCAGUUAGAUUCUGGUGAAUCUGCGAAUUCUGCUGUAUAUCUC, the self-cleavage stood at 0.23.
Consider UAACAGGGGGCCACAGCAGAAGCGUUCACGUCGCAGCCCCAGUCAGAUUCUGGUGAAUCUGCGCAUUCUGCUGUAUAUCUC, for which the self-cleavage came out at 0.15.
For UAACAGGGGGCCACAGCAGAAGCGUUCACGUCGCAGCCCCAGUCAGAUUCUGGUGAAUCUGCGUAUUCUGCUGUAUAUCUC, the self-cleavage turned out to be 0.29.
As for UAACAGGGGGCCACAGCAGAAGCGUUCACGUCGCAGCCCCAGUCAGAUUCUGGUGAAUCUGCGGAUUCUGCUGUAUAUCUC, the self-cleavage is 0.28.
On to UAACAGGGGGCCACAGCAGAAGCGUUCACGUCGCAGCCCCAGUCAGAUUCUGGUGAUUCUGCGAAUUCUGCUGUAUAUCUC, for which the self-cleavage stood at 0.13.
The result for UAACAGGGGGCCACAGCAGAAGCGUUCACGUCGCAGCCCCAGUCAGAUUCUGGUGACUCUGCGAAUUCUGCUGUAUAUCUC reads 0.4; that for UAACAGGGGGCCACAGCAGAAGCGUUCACGUCGCAGCCCCAGUCAGAUUCUGGUGAGUCUGCGAAUUCUGCUGUAUAUCUC, 0.25; that for UAACAGGGGGCCACAGCAGAAGCGUUCACGUCGCAGCCCCAGUCAGAUUCUAGUGAAUCUGCGAAUUCUGCUGUAUAUCUC, 0.19.
As for UAACAGGGGGCCACAGCAGAAGCGUUCACGUCGCAGCCCCAGUCAGAUUCUUGUGAAUCUGCGAAUUCUGCUGUAUAUCUC, the self-cleavage came to 0.21.
For the variant UAACAGGGGGCCACAGCAGAAGCGUUCACGUCGCAGCCCCAGUCAGAUUCUCGUGAAUCUGCGAAUUCUGCUGUAUAUCUC, the self-cleavage was 0.67.
The result for UAACAGGGGGCCACAGCAGAAGCGUUCACGUCGCAGCCCCAGUCAGAUUCUGGUGAAUCUGAGAAUUCUGCUGUAUAUCUC reads 0.34.
The figure for UAACAGGGGGCCACAGCAGAAGCGUUCACGUCGCAGCCCCAGUCAGAUUCUGGUGAAUCUGUGAAUUCUGCUGUAUAUCUC is 0.16; for UAACAGGGGGCCACAGCAGAAGCGUUCACGUCGCAGCCCCAGUCAGAUUCUGGUGAAUCUGCGAAUUCUGCUGUAUAUCUC it is 0.3; for UAACAGGGGGCCACAGCAGAAGCGUUCACGUCGCAGCCCCAGUCAGAUUCUGGUGAAUCUGCGAAUUAUGCUGUAUAUCUC it is 0.17.
The figure for UAACAGGGGGCCACAGCAGAAGCGUUCACGUCGCAGCCCCAGUCAGAUUCUGGUGAAUCUGCGAAUUCUGCUUUAUAUCUC is 0.42.
Turning to UAACAGGGGGCCACAGCAGAAGCGUUCACGUCGCAGCCCCAGUCAGAUUCUGGUGAAUCUGCGAAUUCUGCUAUAUAUCUC, the self-cleavage was determined as 0.45.
Regarding UAACAGGGGGCCACAGCAGAAGCGUUCACGUCGCAGCCCCAGUCAGAUUCUGGUGAAUCUGCGAAUUCUGCUCUAUAUCUC, the self-cleavage is 0.17.
As to UAACAGGGGGCCACAGCAGAAGCGUUCACGUCGCAGCCCCAGUCAGAUUCUGGUGAAUCUGCGAAUUCUGCUGUAUAUAUC, the self-cleavage amounted to 0.32.
For UAACAGGGGGCCACAGCAGAAGCGUUCACGUCGCAGCCCCAGUCAGAUUCUGGUGAAUCUGCGAAUUCUGCUGUAUAUUUC, the self-cleavage is 0.41.
UAACAGGGGGCCACAGCAGAAGCGUUCACGUCGCAGCCCCAGUCAGAUUCUGGUGAAUCUGCGAAUUCUGCUGUAUAUGUC: the self-cleavage stood at 0.37.
As to UAACAGGGGGCCACAGCAGAAGCGUUCACGUCGCAGCCCUUGUCAGAUUCUGGUGAAUCUGCGAAUUCUGCUGUAUAUCCC, the self-cleavage stood at 0.76.
The figure for UAACAGGGGGCCACAGCAGAAGCGUUCACGUCGCAGCCCUUGUCAGAUUCUGGUGAAUCUGCGAAUUCUGCUGUAUAUCAC is 0.67.
The result for UAACAGGGGGCCACAGCAGAAGCGUUCACGUCGCAGCCCCAGUCAGAUUCUGGUGAAUCUGCGAUUUCUGCUGUAUAUCUC reads 0.17.
With UAACAGGGGGCCACAGCAGAAGCGUUCACGUCGCAGCCCCAGUCAGAUUCUGGUGAAUCUGCGAGUUCUGCUGUAUAUCUC, the self-cleavage is 0.25.
The figure for UAACAGGGGGCCACAGCAGAAGCGUUCACGUCGCAGCCCCAGUCAAAUUCUGGUGAAUCUGCGAAUUCUGCUGUAUAUCUC is 0.3; for UAACAGGGGGCCACAGCAGAAGCGUUCACGUCGCAGCCCCAGUCAUAUUCUGGUGAAUCUGCGAAUUCUGCUGUAUAUCUC it is 0.29; for UAACAGGGGGCCACAGCAGAAGCGUUCACGUCGCAGCCCCAGUCCGAUUCUGGUGAAUCUGCGAAUUCUGCUGUAUAUCUC it is 0.18.
Consider UAACAGGGGGCCACAGCAGAAGCGUUCACGUCGCAGCCCCAGUCUGAUUCUGGUGAAUCUGCGAAUUCUGCUGUAUAUCUC, for which the self-cleavage was 0.2.
The result for UAACAGGGGGCCACAGCAGAAGCGUUCACGUCGCAGCCCCAGUCGGAUUCUGGUGAAUCUGCGAAUUCUGCUGUAUAUCUC reads 0.24; that for UAACAGGGGGCCACAGCAGAAGCGUUCACGUCGCAGCCCCAGUCAGAUUCUGGUGAAUCUGCGAAUUCUGCUGUAUCUCUC, 0.15.
With UAACAGGGGGCCACAGCAGAAGCGUUCACGUCGCAGCCCCAGUCAGAUUCUGGUGAAUCUGCGAAUUCUGCUGUAUUUCUC, the self-cleavage amounted to 0.31.
UAACAGGGGGCCACAGCAGAAGCGUUCACGUCGCAGCCCCAGUCAGAUUCUGGUGAAUCUGCGAAUUCUGCUGUAUGUCUC: the self-cleavage amounted to 0.31.
The result for UAACAGGGGGCCACAGCAGAAGCGUUCACGUCGCAGCCCCAGUCAGAUUCUGGUGAAUCUGCGAAUUCUGGUGUAUAUCUC reads 0.1; that for UAACAGGGGGCCACAGCAGAAGCGUUCACGUCGCAGCCCCAGUCAGAUUCUGGUGAAUCUGCGAAUUCUGUUGUAUAUCUC, 0.24; that for UAACAGGGGGCCACAGCAGAAGCGUUCACGUCGCAGCCCCAGUCAGAUUCUGGUGUAUCUGCGAAUUCUGCUGUAUAUCUC, 0.29.
The figure for UAACAGGGGGCCACAGCAGAAGCGUUCACGUCGCAGCCCCAGUCAGAUUCUGGUGGAUCUGCGAAUUCUGCUGUAUAUCUC is 0.24; for UAACAGGGGGCCACAGCAGAAGCGUUCACGUCGCAGCCCCAGUCAGAUUCUGGUGAAUCUGCGAAUUCUGCUGUAUAUCUG it is 0.25.
Regarding UAACAGGGGGCCACAGCAGAAGCGUUCACGUCGCAGCCCCAGUCAGAUUCUGGUGAAUCUGCGAAUUCUGCUGUAUAUCUU, the self-cleavage came out at 0.25.
As to UAACAGGGGGCCACAGCAGAAGCGUUCACGUCGCAGCCCCAGUCAGAUUCUGGUGAAUCUGCGAAUUCUGCUGUAUAUCUA, the self-cleavage amounted to 0.22.
Turning to UAACAGGGGGCCACAGCAGAAGCGUUCACGUCGCAGCCCCAUUCAGAUUCUGGUGAAUCUGCGAAUUCUGCUGUAUAUCUC, the self-cleavage turned out to be 0.27.
For the variant UAACAGGGGGCCACAGCAGAAGCGUUCACGUCGCAGCCCCAAUCAGAUUCUGGUGAAUCUGCGAAUUCUGCUGUAUAUCUC, the self-cleavage was determined as 0.37.
The figure for UAACAGGGGGCCACAGCAGAAGCGUUCACGUCGCAGCCCCACUCAGAUUCUGGUGAAUCUGCGAAUUCUGCUGUAUAUCUC is 0.21; for UAACAGGGGGCCACAGCAGAAGCGUUCACGUCGCAGCCCCAGUCAGAUUCUGCUGAAUCUGCGAAUUCUGCUGUAUAUCUC it is 0.23.
In the case of UAACAGGGGGCCACAGCAGAAGCGUUCACGUCGCAGCCCCAGUCAGAUUCUGAUGAAUCUGCGAAUUCUGCUGUAUAUCUC, the self-cleavage came out at 0.38.
The figure for UAACAGGGGGCCACAGCAGAAGCGUUCACGUCGCAGCCCCAGUCAGAUUCUGGUGAAUCUGCAAAUUCUGCUGUAUAUCUC is 0.35.
The result for UAACAGGGGGCCACAGCAGAAGCGUUCACGUCGCAGCCCCAGUCAGAUUCUGGUGAAUCUGCUAAUUCUGCUGUAUAUCUC reads 0.3.
As to UAACAGGGGGCCACAGCAGAAGCGUUCACGUCGCAGCCCCAGUCAGAUUCUGGUGAAUCUGCCAAUUCUGCUGUAUAUCUC, the self-cleavage was 0.26.
Consider UAACAGGGGGCCACAGCAGAAGCGUUCACGUCGCAGCCCCAGUCAGACUCUGGUGAAUCUGCGAAUUCUGCUGUAUAUCUC, for which the self-cleavage stood at 0.23.
UAACAGGGGGCCACAGCAGAAGCGUUCACGUCGCAGCCCCAGUCAGAAUCUGGUGAAUCUGCGAAUUCUGCUGUAUAUCUC: the self-cleavage is 0.22.
The result for UAACAGGGGGCCACAGCAGAAGCGUUCACGUCGCAGCCCCAGUCAGAUUCUGGUCAAUCUGCGAAUUCUGCUGUAUAUCUC reads 0.34; that for UAACAGGGGGCCACAGCAGAAGCGUUCACGUCGCAGCCCCAGUCAGAUUCUGGUUAAUCUGCGAAUUCUGCUGUAUAUCUC, 0.2.
The figure for UAACAGGGGGCCACAGCAGAAGCGUUCACGUCGCAGCCCCAGUCAGAUUCUGGUAAAUCUGCGAAUUCUGCUGUAUAUCUC is 0.19.
The figure for UAACAGGGGGCCACAGCAGAAGCGUUCACGUCGCAGCCCCAGUCAGAUUCUGGUGAAUCUUCGAAUUCUGCUGUAUAUCUC is 0.24; for UAACAGGGGGCCACAGCAGAAGCGUUCACGUCGCAGCCCCAGUCAGAUUCUGGUGAAUAUGCGAAUUCUGCUGUAUAUCUC it is 0.13; for UAACAGGGGGCCACAGCAGAAGCGUUCACGUCGCAGCCCCAGUCAGAUUCUGGUGAAUUUGCGAAUUCUGCUGUAUAUCUC it is 0.06.
As for UAACAGGGGGCCACAGCAGAAGCGUUCACGUCGCAGCCCCAGUCAGAUUCUGGUGAAUCUGCGAAUUCUGCUGUCUAUCUC, the self-cleavage was 0.31.
With UAACAGGGGGCCACAGCAGAAGCGUUCACGUCGCAGCCCCAGUCAGAUUCUGGUGAAUCUGCGAAUUCUGCUGUUUAUCUC, the self-cleavage is 0.4.
In the case of UAACAGGGGGCCACAGCAGAAGCGUUCACGUCGCAGCCCCAGUCAGAUUCUGGUGAAUCUGCGAAUUCUGCUGUGUAUCUC, the self-cleavage stood at 0.27.
The figure for UAACAGGGGGCCACAGCAGAAGCGUUCACGUCGCAGCCCCAGUCAGGUUCUGGUGAAUCUGCGAAUUCUGCUGUAUAUCUC is 0.29.
As for UAACAGGGGGCCACAGCAGAAGCGUUCACGUCGCAGCCCCAGUCAGUUUCUGGUGAAUCUGCGAAUUCUGCUGUAUAUCUC, the self-cleavage is 0.3.
In the case of UAACAGGGGGCCACAGCAGAAGCGUUCACGUCGCAGCCCCAGUCAGCUUCUGGUGAAUCUGCGAAUUCUGCUGUAUAUCUC, the self-cleavage was determined as 0.18.
